Measurements: the supplement of paper PMC9112550, “Optimization of the antimicrobial peptide Bac7 by deep mutational scanning” (BMC Biology, 2022)

What follows are sequences tested on Escherichia coli TOP10 (assay: shrunken log2 fold change of peptide-encoding DNA abundance (4.5 h post-induction vs induction); higher = less antimicrobial activity (less host growth inhibition)). Details: time post-induction: 4.5 h; library: site-saturation at positions 5, 18, 19, 20.
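Note: peptides expressed intracellularly from a pBAD plasmid library in pooled LB shake-flask culture, induced with 0.3% L-arabinose, DNA abundance read by NGS, three biological replicates, DESeq2 with apeglm shrinkage.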

First: RRIRLRPPRLPRPRPRPVYYPRP
Second: RRIRWRPPRLPRPRPRPTIYPRP
The “shrunken log2 fold change” value of the first is lower: -0.633 for the first, 0.113 for the second.

RRIRYRPPRLPRPRPRPPWMPRP and RRIRIRPPRLPRPRPRPPKKPRP are within 0.2 log units of each other in “shrunken log2 fold change” value: -0.0946 for the first, -0.114 for the second.

First: RRIRHRPPRLPRPRPRPTPWPRP
Second: RRIRHRPPRLPRPRPRPWNYPRP
The “shrunken log2 fold change” value of the first is higher: 0.692 for the first, -0.617 for the second.

RRIRMRPPRLPRPRPRPFQAPRP and RRIRTRPPRLPRPRPRPAPSPRP are within 0.2 log units of each other in “shrunken log2 fold change” value: 0.242 for the first, 0.231 for the second.

RRIRSRPPRLPRPRPRPASHPRP and RRIRNRPPRLPRPRPRPLQEPRP are within 0.2 log units of each other in “shrunken log2 fold change” value: -0.167 for the first, -0.0474 for the second.

RRIRARPPRLPRPRPRPCQRPRP and RRIRTRPPRLPRPRPRPPNRPRP are within 0.2 log units of each other in “shrunken log2 fold change” value: 0.246 for the first, 0.135 for the second.

Going from RRIRSRPPRLPRPRPRPYLGPRP to RRIRMRPPRLPRPRPRPRLCPRP, the “shrunken log2 fold change” value rises from -0.204 to 1.66.

Compared with RRIRRRPPRLPRPRPRPERLPRP, RRIRMRPPRLPRPRPRPQHWPRP is lower in “shrunken log2 fold change” value: 0.474 for the first, 0.155 for the second.

Compared with RRIRYRPPRLPRPRPRPCYNPRP, RRIRFRPPRLPRPRPRPCAAPRP is higher in “shrunken log2 fold change” value: -0.857 for the first, 0.35 for the second.

RRIRWRPPRLPRPRPRPFKRPRP and RRIRNRPPRLPRPRPRPRRQPRP are within 0.2 log units of each other in “shrunken log2 fold change” value: 0.0707 for the first, 0.227 for the second.

First: RRIRCRPPRLPRPRPRPRLPPRP
Second: RRIRWRPPRLPRPRPRPKGVPRP
The “shrunken log2 fold change” value of the first is higher: 0.382 for the first, 0.109 for the second.

First: RRIRVRPPRLPRPRPRPRLCPRP
Second: RRIRVRPPRLPRPRPRPWYQPRP
The “shrunken log2 fold change” value of the first is higher: 0.564 for the first, -0.197 for the second.

RRIRCRPPRLPRPRPRPGLIPRP and RRIRLRPPRLPRPRPRPEKTPRP are within 0.2 log units of each other in “shrunken log2 fold change” value: 4.01e-05 for the first, -0.00142 for the second.

RRIRARPPRLPRPRPRPNELPRP and RRIRIRPPRLPRPRPRPSRWPRP are within 0.2 log units of each other in “shrunken log2 fold change” value: 0.343 for the first, 0.324 for the second.

RRIRYRPPRLPRPRPRPISIPRP and RRIRVRPPRLPRPRPRPIVYPRP are within 0.2 log units of each other in “shrunken log2 fold change” value: -0.134 for the first, -0.0876 for the second.

First: RRIRHRPPRLPRPRPRPMYQPRP
Second: RRIRCRPPRLPRPRPRPMVWPRP
The “shrunken log2 fold change” value of the first is lower: -0.00419 for the first, 0.412 for the second.

First: RRIRFRPPRLPRPRPRPNIVPRP
Second: RRIRCRPPRLPRPRPRPSYYPRP
The “shrunken log2 fold change” value of the first is higher: -0.199 for the first, -0.794 for the second.

Compared with RRIRSRPPRLPRPRPRPMWPPRP, RRIRLRPPRLPRPRPRPEEMPRP is lower in “shrunken log2 fold change” value: 0.447 for the first, 0.034 for the second.

Going from RRIRVRPPRLPRPRPRPFMCPRP to RRIRFRPPRLPRPRPRPPCRPRP, the “shrunken log2 fold change” value rises from -0.325 to 0.172.

RRIRVRPPRLPRPRPRPDDTPRP and RRIRCRPPRLPRPRPRPPFEPRP are within 0.2 log units of each other in “shrunken log2 fold change” value: -0.00824 for the first, 0.136 for the second.

RRIRDRPPRLPRPRPRPYKFPRP and RRIRPRPPRLPRPRPRPFEIPRP are within 0.2 log units of each other in “shrunken log2 fold change” value: -0.223 for the first, -0.0325 for the second.

Compared with RRIRVRPPRLPRPRPRPSCKPRP, RRIRFRPPRLPRPRPRPHDTPRP is lower in “shrunken log2 fold change” value: -0.207 for the first, -0.535 for the second.

RRIRRRPPRLPRPRPRPLLNPRP and RRIRHRPPRLPRPRPRPQSYPRP are within 0.2 log units of each other in “shrunken log2 fold change” value: -0.00444 for the first, -0.175 for the second.

First: RRIRMRPPRLPRPRPRPDLLPRP
Second: RRIRNRPPRLPRPRPRPFQSPRP
The “shrunken log2 fold change” value of the first is higher: 2.73 for the first, -0.0983 for the second.

Compared with RRIRLRPPRLPRPRPRPLTDPRP, RRIRWRPPRLPRPRPRPELYPRP is higher in “shrunken log2 fold change” value: 0.133 for the first, 0.541 for the second.

First: RRIRYRPPRLPRPRPRPNKYPRP
Second: RRIRRRPPRLPRPRPRPDFMPRP
The “shrunken log2 fold change” value of the first is lower: -0.908 for the first, 0.335 for the second.

Going from RRIRSRPPRLPRPRPRPNQCPRP to RRIRKRPPRLPRPRPRPHMAPRP, the “shrunken log2 fold change” value falls from -0.215 to -0.448.

Compared with RRIRWRPPRLPRPRPRPPNYPRP, RRIRRRPPRLPRPRPRPTCVPRP is higher in “shrunken log2 fold change” value: -0.0821 for the first, 0.455 for the second.

RRIRRRPPRLPRPRPRPWYRPRP and RRIRTRPPRLPRPRPRPQNFPRP are within 0.2 log units of each other in “shrunken log2 fold change” value: -0.151 for the first, -0.18 for the second.

RRIRPRPPRLPRPRPRPVKNPRP and RRIRVRPPRLPRPRPRPPGYPRP are within 0.2 log units of each other in “shrunken log2 fold change” value: 0.00624 for the first, 0.0333 for the second.

RRIRMRPPRLPRPRPRPQYEPRP and RRIRFRPPRLPRPRPRPQYLPRP are within 0.2 log units of each other in “shrunken log2 fold change” value: -0.148 for the first, -0.329 for the second.

Compared with RRIRERPPRLPRPRPRPWICPRP, RRIRERPPRLPRPRPRPLKVPRP is higher in “shrunken log2 fold change” value: -0.378 for the first, -0.0726 for the second.

Compared with RRIRWRPPRLPRPRPRPCKHPRP, RRIRWRPPRLPRPRPRPRVMPRP is higher in “shrunken log2 fold change” value: -0.245 for the first, 0.275 for the second.

Compared with RRIRWRPPRLPRPRPRPRMDPRP, RRIRLRPPRLPRPRPRPGPHPRP is lower in “shrunken log2 fold change” value: 0.211 for the first, -0.0887 for the second.

Going from RRIRKRPPRLPRPRPRPTNVPRP to RRIRTRPPRLPRPRPRPSNDPRP, the “shrunken log2 fold change” value falls from 0.221 to -0.557.

Going from RRIRFRPPRLPRPRPRPACLPRP to RRIRMRPPRLPRPRPRPPDLPRP, the “shrunken log2 fold change” value rises from -0.105 to 0.129.

Going from RRIRWRPPRLPRPRPRPIAMPRP to RRIRWRPPRLPRPRPRPDLGPRP, the “shrunken log2 fold change” value falls from 0.256 to -0.135.

RRIRARPPRLPRPRPRPQKAPRP and RRIRHRPPRLPRPRPRPILIPRP are within 0.2 log units of each other in “shrunken log2 fold change” value: 0.0481 for the first, -0.0862 for the second.

First: RRIRTRPPRLPRPRPRPLKKPRP
Second: RRIRERPPRLPRPRPRPYYAPRP
The “shrunken log2 fold change” value of the first is higher: -0.0468 for the first, -0.72 for the second.

RRIRLRPPRLPRPRPRPSEIPRP and RRIRTRPPRLPRPRPRPAYVPRP are within 0.2 log units of each other in “shrunken log2 fold change” value: -0.397 for the first, -0.27 for the second.

Compared with RRIRKRPPRLPRPRPRPPPVPRP, RRIRVRPPRLPRPRPRPNKGPRP is lower in “shrunken log2 fold change” value: 0.751 for the first, -0.47 for the second.

Going from RRIRNRPPRLPRPRPRPYFFPRP to RRIRQRPPRLPRPRPRPMSHPRP, the “shrunken log2 fold change” value rises from -0.482 to 0.00245.

Compared with RRIRHRPPRLPRPRPRPGHCPRP, RRIRKRPPRLPRPRPRPWKAPRP is higher in “shrunken log2 fold change” value: -0.133 for the first, 0.49 for the second.

First: RRIRMRPPRLPRPRPRPTKQPRP
Second: RRIRLRPPRLPRPRPRPQEHPRP
The “shrunken log2 fold change” value of the first is higher: 0.296 for the first, -0.167 for the second.

RRIRDRPPRLPRPRPRPQKIPRP and RRIRLRPPRLPRPRPRPACMPRP are within 0.2 log units of each other in “shrunken log2 fold change” value: 0.0171 for the first, 0.00459 for the second.

RRIRKRPPRLPRPRPRPPVIPRP and RRIRSRPPRLPRPRPRPSFGPRP are within 0.2 log units of each other in “shrunken log2 fold change” value: 0.063 for the first, 0.176 for the second.

First: RRIRRRPPRLPRPRPRPPKVPRP
Second: RRIRWRPPRLPRPRPRPCATPRP
The “shrunken log2 fold change” value of the first is higher: 0.693 for the first, 0.183 for the second.

Compared with RRIRWRPPRLPRPRPRPYYQPRP, RRIRSRPPRLPRPRPRPKREPRP is higher in “shrunken log2 fold change” value: -0.297 for the first, 0.393 for the second.

Compared with RRIRPRPPRLPRPRPRPPTCPRP, RRIRCRPPRLPRPRPRPGARPRP is higher in “shrunken log2 fold change” value: 0.051 for the first, 0.394 for the second.

RRIRHRPPRLPRPRPRPCGMPRP and RRIRDRPPRLPRPRPRPNLYPRP are within 0.2 log units of each other in “shrunken log2 fold change” value: -0.0838 for the first, -0.0872 for the second.

First: RRIRIRPPRLPRPRPRPWICPRP
Second: RRIRPRPPRLPRPRPRPVPQPRP
The “shrunken log2 fold change” value of the first is lower: -0.132 for the first, 0.446 for the second.

Compared with RRIRERPPRLPRPRPRPIMKPRP, RRIRFRPPRLPRPRPRPCMNPRP is higher in “shrunken log2 fold change” value: -0.376 for the first, 0.0346 for the second.

Going from RRIRERPPRLPRPRPRPVLKPRP to RRIRWRPPRLPRPRPRPLDKPRP, the “shrunken log2 fold change” value rises from 0.0458 to 0.352.

RRIRIRPPRLPRPRPRPDCAPRP and RRIRARPPRLPRPRPRPNYFPRP are within 0.2 log units of each other in “shrunken log2 fold change” value: -0.0601 for the first, -0.251 for the second.

In the case of RRIRDRPPRLPRPRPRPHRVPRP, the “shrunken log2 fold change” value is reported as -0.0141.
